Here are results for two substances from patent publication US20030157096A1.

Test [1] deals with IL-TIF protein (human) (human) (UniProt Q9GZX6). In words: cell-based or functional assay.
For test [2], the target named is zcytor11 and CRF2-4 receptors co-expressed on transfected BaF3 or BHK cells (human) (UniProt Q08334). In words: cell-based or functional assay.
Sequence of zcytor11 and CRF2-4 receptors co-expressed on transfected BaF3 or BHK cells (human) (chain, as listed by the source limits assumed, chain 1 of 2): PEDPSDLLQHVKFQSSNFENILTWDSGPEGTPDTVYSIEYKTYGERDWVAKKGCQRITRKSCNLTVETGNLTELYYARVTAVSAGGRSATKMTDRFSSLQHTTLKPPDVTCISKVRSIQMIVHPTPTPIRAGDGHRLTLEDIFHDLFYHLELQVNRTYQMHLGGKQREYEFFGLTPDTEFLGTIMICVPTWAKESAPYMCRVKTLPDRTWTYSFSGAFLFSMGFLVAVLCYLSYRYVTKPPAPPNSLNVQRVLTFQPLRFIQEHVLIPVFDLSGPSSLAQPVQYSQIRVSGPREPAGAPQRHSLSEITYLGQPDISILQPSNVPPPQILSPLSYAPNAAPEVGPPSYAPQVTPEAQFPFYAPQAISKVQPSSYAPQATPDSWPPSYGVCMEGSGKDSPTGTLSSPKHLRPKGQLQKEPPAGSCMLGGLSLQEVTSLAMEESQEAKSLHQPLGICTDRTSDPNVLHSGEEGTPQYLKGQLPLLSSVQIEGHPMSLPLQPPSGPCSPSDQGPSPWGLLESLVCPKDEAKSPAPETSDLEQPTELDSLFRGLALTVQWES
Sequence of zcytor11 and CRF2-4 receptors co-expressed on transfected BaF3 or BHK cells (human) (Q08334 20-325 limits assumed, chain 2 of 2): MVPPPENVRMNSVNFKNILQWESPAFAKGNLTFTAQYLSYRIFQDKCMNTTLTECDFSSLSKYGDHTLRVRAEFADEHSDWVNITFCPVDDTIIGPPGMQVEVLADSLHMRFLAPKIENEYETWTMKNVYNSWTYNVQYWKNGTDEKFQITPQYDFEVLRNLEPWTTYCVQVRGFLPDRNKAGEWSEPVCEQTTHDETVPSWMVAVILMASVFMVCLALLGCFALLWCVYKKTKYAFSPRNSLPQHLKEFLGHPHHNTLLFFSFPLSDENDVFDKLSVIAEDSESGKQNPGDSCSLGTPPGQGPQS

Sequence of IL-TIF protein (human) (human) (Q9GZX6 34-179 limits assumed): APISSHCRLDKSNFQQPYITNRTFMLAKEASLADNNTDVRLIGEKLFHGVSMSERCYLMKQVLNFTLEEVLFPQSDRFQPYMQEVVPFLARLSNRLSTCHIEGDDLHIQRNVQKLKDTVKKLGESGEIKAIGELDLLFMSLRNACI
Sequence of CRF2-4/zcytor11-Fc soluble receptor heterodimer (Fc fusion) (chain): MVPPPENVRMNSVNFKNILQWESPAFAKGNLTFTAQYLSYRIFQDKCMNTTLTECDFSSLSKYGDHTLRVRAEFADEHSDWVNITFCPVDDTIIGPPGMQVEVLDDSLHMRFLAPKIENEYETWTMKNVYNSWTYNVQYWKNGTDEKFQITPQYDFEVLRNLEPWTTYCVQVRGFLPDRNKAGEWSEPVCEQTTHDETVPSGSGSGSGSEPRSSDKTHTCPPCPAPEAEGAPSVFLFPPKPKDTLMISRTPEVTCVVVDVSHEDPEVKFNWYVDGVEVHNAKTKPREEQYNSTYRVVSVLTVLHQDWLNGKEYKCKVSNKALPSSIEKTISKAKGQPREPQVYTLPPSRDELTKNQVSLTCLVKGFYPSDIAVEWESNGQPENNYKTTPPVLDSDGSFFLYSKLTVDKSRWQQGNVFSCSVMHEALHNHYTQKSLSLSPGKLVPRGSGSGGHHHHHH
Sequence of CRF2-4/zcytor11-Fc soluble receptor heterodimer (Fc fusion) (chain): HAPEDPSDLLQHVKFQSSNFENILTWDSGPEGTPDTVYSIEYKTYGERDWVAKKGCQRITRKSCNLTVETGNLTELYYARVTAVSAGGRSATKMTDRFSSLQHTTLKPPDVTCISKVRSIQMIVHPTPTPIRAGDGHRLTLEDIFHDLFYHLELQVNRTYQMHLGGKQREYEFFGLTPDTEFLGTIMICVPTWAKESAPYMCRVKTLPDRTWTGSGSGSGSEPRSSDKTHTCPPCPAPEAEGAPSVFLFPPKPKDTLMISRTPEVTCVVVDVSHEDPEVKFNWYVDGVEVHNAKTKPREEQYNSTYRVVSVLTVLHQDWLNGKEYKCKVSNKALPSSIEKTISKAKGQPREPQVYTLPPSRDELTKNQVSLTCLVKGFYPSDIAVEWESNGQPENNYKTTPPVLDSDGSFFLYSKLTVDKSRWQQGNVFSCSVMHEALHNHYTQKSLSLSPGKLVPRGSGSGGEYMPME

With “CRF2-4/zcytor11-Fc soluble receptor heterodimer (Fc fusion)”, in test [1], the inhibition of IL-TIF-induced proliferation (Alamar Blue), concentration at which inhibition was barely detectable was found to be 1.6 ng/mL; the inhibition of IL-TIF-induced proliferation (Alamar Blue), concentration giving complete inhibition was 25 to 200 ng/mL; the inhibition of IL-TIF-induced proliferation (Alamar Blue), concentration giving partial inhibition was in the range of 3.1 to 12.5 ng/mL.

Turning to “IL-TIF protein (human) (from UniProt Q9GZX6 34-179) (ligand)”, in test [2], the Alamar Blue proliferation of BaF3/CRF2-4/zcytor11 cells, fold over background worked out at 30 fold.
